We go through two substances from publication PMC10846113, “fosA11, a novel chromosomal-encoded fosfomycin resistance gene identified in Providencia rettgeri” (Microbiology Spectrum, 2023).

Data set [1] relates to C[C@@H]1O[C@@H]1P(=O)(O)O. Kind of data set: glutathione consumption, monochlorobimane fluorescence, Michaelis-Menten fit. Particulars: 30 mM glutathione, 0.05 mM MnCl2, 0.1 M HEPES pH 8.0, 25 °C. It is filed as biochemical, Escherichia coli. From the text:
glutathione consumption, monochlorobimane fluorescence, Michaelis-Menten fit on FosA3

The subject of data set [2] is C[C@@H]1O[C@@H]1P(=O)(O)O. The description is as above. It is filed as biochemical, Providencia rettgeri. To be noted: 30 mM glutathione, 0.05 mM MnCl2, 0.1 M HEPES pH 8.0, 25 °C. From the text:
glutathione consumption, monochlorobimane fluorescence, Michaelis-Menten fit on FosA11

A word on the Km: it is the substrate concentration at which the rate is half of its maximum. In general, kcat refers to the maximal rate divided by the concentration of active sites. As usually defined, the kcat/Km is the second-order rate constant that governs catalysis at low substrate concentration. Regarding FosA3 (Escherichia coli), in data set [1], the Km turned out to be 12 ± 2 mM, the kcat came to 112 ± 5.3 s⁻¹ and the kcat/Km was determined as 9000 ± 1000 M⁻¹ s⁻¹.
For FosA11 (Providencia rettgeri), in data set [2], the Michaelis-Menten constant (Km) came out at 18 ± 4 mM, the kcat turned out to be 56.1 ± 3.2 s⁻¹ and the kcat/Km was 2900 ± 500 M⁻¹ s⁻¹.
